B1: PLD5 (parent)
chain: VTYMNMTAYNKGRLQSSFWIVDKQ
B2: MYBL2 (parent)
chain: VKKSCWTEEEDRIICEAHKVLGNR

Variants of: B1
Assay: protein stability index of a GFP-peptide fusion (GPS, HEK-293T) (PSI 1-6); higher = more stable
Conditions: c terminus: a fixed tail appended
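Note: lentivirally expressed fusions sorted by FACS into six bins by GFP to DsRed ratio, PSI derived from sequencing read proportions per bin multiplied by bin number.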

Protein stability index, by site and new letter:
Q24: S 2.22; E 1.48; H 2.19; A 2.28; K 1.24; I 2.52; R 2.46; N 2.11; P 2.67; T 2.79; D 1.85; M 3.08
I20: W 2.26; Y 2.98; C 1.76; A 1.41; P 1.7; D 1.33; T 1.4; S 2.09; E 2.23; K 2.27; M 3.68; Q 1.97; N 1.91; L 1.22; R 1.51; G 1.25; H 2.41
F18: L 2.32; D 2.07; M 2.26; T 1.74; C 2.26; K 1.8; H 1.48; Q 1.8; Y 1.8; W 1.24; S 2.07; R 1.82; G 2.31; N 1.67; V 2.57; A 2.89; E 2.2; P 2.02
L14: N 1.29; V 1.84; A 2.63; P 2.86; E 1.62; K 2.29; T 2.14; W 2.63; Q 1.25; R 2.06; S 2.72; M 2.88; D 2.06; F 1.93; Y 2.04
D22: T 3.51; K 2.53; N 3.19; M 3.38; C 3.67; R 3.44; H 3.52; P 2.11; E 1.21
S16: Y 4.23; W 3.41; I 2.81; R 1.28; Q 2.42; D 2.08; T 3.01; F 3.61; K 1.63; H 2.01; N 1.21; A 3.62; P 1.1
R13: Y 2.93
S17: K 2.12; R 3.71; G 1.73; C 2.28; D 2.15; Y 3.31; A 2.28; P 2.33; H 1.93; L 1.12; M 4.26; T 1.43; N 1.49
V21: H 1.28; D 1.96; Q 1.89; T 2.43; F 1.43; S 1.55; K 2.31; R 1.7; M 1.52; E 1.5; N 2.82; C 1.38; I 2.63; Y 1.81; A 2.08; P 1.85; L 2.21; G 1.53
Q15: G 2.44; F 1.61; T 4.18; N 3.18; P 2.48; I 2.03; V 4.47; K 1.03; E 1.94; W 2.58; A 3.27; H 2.42; D 1.63; M 2.46; R 3.58; L 2.49
K23: Y 2.52; H 2.49; A 3.81; R 2.17; L 4.23; D 2.85; T 3.52; C 1.95; Q 1.74; E 3.18; I 2.33; P 2.67; M 3.22; N 3.33
W19: C 1.49; M 1.62; L 2; I 1.76; E 2.04; K 1.84; F 2.04; S 2.29; G 2.01; Y 1.91; A 1.8; Q 2.46; P 1.98; T 2.18; V 1.65; R 1.91; H 2.21; D 2.45

Variants of: B2
Assay: as above
Conditions: c terminus: a fixed tail appended

Protein stability index of substitutions, site by site:
G22: P 3.54; H 3.11; A 3.17; D 3.38
S4: T 2.97; H 2.77; F 2.83; L 3.33; E 3.82; Y 2.27; I 3.21; K 3.49
E10: M 1.99; Q 3.26; W 1.78; L 2.06; R 2.65; G 3.15; H 3.08; P 2.99; K 2.99; C 2.27; I 2.39
R24: L 3.32; C 3.3; D 4.19; P 3.7; Y 3.06; G 4.11; I 2.69; K 4.21
T7: I 4; D 3.76; C 3.05; V 3.54; H 2.95; K 3.51; S 2.83
N23: T 3.41; D 3.64; M 2.1; H 3.71; S 2.9; V 2.93; W 2.59; G 2.57
C5: D 3.77; H 3.63; Y 3.47; M 3; P 3.69; V 3.31; I 3.24; A 3.47; R 3.88
K2: G 3.46; N 3.43; T 2.97; V 2.76; W 2.3; S 3.8; E 3.19
E8: P 3.4; W 2.47; D 3.11; Y 2.79; L 2.69; V 2.85; Q 3.5
E9: T 3.28; C 2.6; W 2.35; L 2.98; I 2.57
K19: M 2.93; F 2.19; W 1.91; D 3.86; E 4.27
L21: G 3.44; H 3.53; S 3.3
A17: L 1.59; N 3.88; W 2.55; H 3.46; S 3.36; M 3.03; T 2.92; C 2.12; Q 3.83; F 2.65
I14: L 3.41; T 4.39; W 3.12; Y 3.23; P 3.67; E 4.24
V20: T 3.34; L 3.15; Q 4.5; E 4.03; R 3.59; P 3.72; G 3.67; Y 3.12; H 2.55; A 3.51; S 3.55
I13: M 3.67; N 3.46; F 3; H 3.29; A 4.41; C 2.77; Y 3.01; K 3.82
R12: I 3.38; P 3.38; K 4.05; Y 3.16
K3: P 3.14; T 2.76; F 2.69; D 3.54; M 2.78
H18: L 2.45; F 2.63; C 1.8; Y 2.56; Q 3.35; R 2.69; G 3.2; W 2.18; A 3.47
W6: Q 4.36; F 3.54; L 3.85; K 4.05; D 4.33; H 3.07; E 4.7; S 4.09; Y 3.5
E16: C 1.94; F 1.69; R 3.13; I 1.84; S 3.06
D11: K 2.74; R 2.85; P 2.76; T 2.83; C 2.53; M 2.12; E 3.43
V1: A 3.19; Y 2.71; E 3.07; F 2.87; H 3.69; K 3.34; W 3.12; D 3.35; M 3.32
C15: T 3.74; H 3.76; M 2.87; I 3.47; F 2.79
